Measured values taken from US10005846 (LIFEARC, dated 2018).

Assays:
rat TG2 = molecular target: T1, rat TG2 (rat, UniProt Q9WVJ6 1-686, limits assumed); assay: western blot and ELISA
T1 sequence: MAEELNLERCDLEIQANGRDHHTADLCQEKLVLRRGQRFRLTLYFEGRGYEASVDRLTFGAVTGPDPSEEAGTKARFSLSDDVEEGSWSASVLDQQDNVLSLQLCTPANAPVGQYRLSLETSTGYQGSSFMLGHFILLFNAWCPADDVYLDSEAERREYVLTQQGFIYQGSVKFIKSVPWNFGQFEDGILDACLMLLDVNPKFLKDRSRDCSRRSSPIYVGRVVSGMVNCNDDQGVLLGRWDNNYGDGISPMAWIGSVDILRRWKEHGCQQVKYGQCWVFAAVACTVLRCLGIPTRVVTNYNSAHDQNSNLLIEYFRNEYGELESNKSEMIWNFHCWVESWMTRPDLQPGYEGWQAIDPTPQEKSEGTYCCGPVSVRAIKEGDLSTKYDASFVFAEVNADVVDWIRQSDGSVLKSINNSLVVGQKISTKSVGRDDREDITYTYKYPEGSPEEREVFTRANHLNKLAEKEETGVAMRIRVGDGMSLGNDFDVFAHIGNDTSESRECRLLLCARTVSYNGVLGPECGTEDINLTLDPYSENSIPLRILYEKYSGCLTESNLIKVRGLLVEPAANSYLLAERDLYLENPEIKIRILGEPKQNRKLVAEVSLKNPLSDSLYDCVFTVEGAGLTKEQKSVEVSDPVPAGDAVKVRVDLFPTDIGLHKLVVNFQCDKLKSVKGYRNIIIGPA

[1] = molecular target: T2, human transglutaminase type 2 (TG2) (human, UniProt P21980 1-687); assay: ELISA on immobilised human TG2; r2 0.9968; EC50 95% confidence range 0.2890 to 0.4002 [panel A]
T2 construct: Recombinant full-length human TG2 (Zedira; cat; T002 in the Biacore work); Also used here for the endogenous TG2 of HepG2 lysate and HK-2 cells; also called hTG2; rhTG2
T2 sequence: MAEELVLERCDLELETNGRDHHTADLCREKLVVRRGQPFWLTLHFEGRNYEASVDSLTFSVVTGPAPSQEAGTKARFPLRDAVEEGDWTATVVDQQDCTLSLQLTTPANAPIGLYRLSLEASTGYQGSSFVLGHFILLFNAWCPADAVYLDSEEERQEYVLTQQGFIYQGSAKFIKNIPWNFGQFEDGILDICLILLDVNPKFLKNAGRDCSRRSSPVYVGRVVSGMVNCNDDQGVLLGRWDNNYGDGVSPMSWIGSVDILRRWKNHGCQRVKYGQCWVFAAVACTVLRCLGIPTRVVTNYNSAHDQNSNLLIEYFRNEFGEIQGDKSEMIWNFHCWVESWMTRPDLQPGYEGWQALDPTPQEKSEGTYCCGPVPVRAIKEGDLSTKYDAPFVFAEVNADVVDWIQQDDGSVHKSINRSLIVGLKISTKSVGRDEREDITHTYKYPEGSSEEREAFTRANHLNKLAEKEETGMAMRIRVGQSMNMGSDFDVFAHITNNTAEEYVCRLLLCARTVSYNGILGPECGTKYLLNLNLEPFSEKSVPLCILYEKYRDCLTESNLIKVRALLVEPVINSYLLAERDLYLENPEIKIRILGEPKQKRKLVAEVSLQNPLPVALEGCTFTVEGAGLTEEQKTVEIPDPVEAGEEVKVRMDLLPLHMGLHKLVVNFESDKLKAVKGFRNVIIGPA
Experimental: (§1) Antibody binding to human and cynomolgus monkey TG2 was determined in an ELISA assay. Clear polystyrene "Maxisorp" 96-well plates (Nunc) were coated with 50 ng purified human or cynomogulus monkey TG2 in 50 µl 0.05 M carbonate-bicarbonate buffer pH 9.6 at 4° C. overnight. Control wells were coated with 50 µl 100 µg/ml bovine serum albumin (BSA). Plates were washed 3× with 300 µl phosphate-buffered saline pH7.4 (PBS) containing 0.1% Tween 20 (PBST) and blocked with 300 µl 3% w/v Marvel skimmed milk in PBS for 1 hour at room temperature. After 3× wash with PBST, 50 µl protein-A purified chimeric or humanised anti-TG2 antibodies or human IgG1 kappa […] control antibody or CUB7402 (Abcam) were serially diluted 4-fold from a top concentration of 50 nM in PBS, and added to the plate in duplicate. […] After 3× washes with PBST, the plates were developed with 50 µl TMB substrate (Sigma) for 5 min at room temperature before stopping the reaction with 25 µl 0.5M H2SO4 and reading absorbance at 450 nm in a microtiter plate reader (BioTek EL808). Dose response curves were analysed and EC50 values and other statistical parameters determined using a 4-parameter logistical fit of the data (GraphPad Prism).

[2] = molecular target: T2, human transglutaminase type 2 (TG2); assay: cell-based or functional assay
cynomolgus monkey TG2 = molecular target: T3, cynomolgus monkey TG2 (cynomolgus monkey, UniProt A0A2K5VXI8 1-687); assay: ELISA on immobilised cynomolgus monkey TG2; r2 0.9992; EC50 95% confidence range 0.3040 to 0.3536 [panel A]
T3 construct: Bought recombinant protein; also called cynomogulus monkey TG2; cyano TG2
T3 sequence: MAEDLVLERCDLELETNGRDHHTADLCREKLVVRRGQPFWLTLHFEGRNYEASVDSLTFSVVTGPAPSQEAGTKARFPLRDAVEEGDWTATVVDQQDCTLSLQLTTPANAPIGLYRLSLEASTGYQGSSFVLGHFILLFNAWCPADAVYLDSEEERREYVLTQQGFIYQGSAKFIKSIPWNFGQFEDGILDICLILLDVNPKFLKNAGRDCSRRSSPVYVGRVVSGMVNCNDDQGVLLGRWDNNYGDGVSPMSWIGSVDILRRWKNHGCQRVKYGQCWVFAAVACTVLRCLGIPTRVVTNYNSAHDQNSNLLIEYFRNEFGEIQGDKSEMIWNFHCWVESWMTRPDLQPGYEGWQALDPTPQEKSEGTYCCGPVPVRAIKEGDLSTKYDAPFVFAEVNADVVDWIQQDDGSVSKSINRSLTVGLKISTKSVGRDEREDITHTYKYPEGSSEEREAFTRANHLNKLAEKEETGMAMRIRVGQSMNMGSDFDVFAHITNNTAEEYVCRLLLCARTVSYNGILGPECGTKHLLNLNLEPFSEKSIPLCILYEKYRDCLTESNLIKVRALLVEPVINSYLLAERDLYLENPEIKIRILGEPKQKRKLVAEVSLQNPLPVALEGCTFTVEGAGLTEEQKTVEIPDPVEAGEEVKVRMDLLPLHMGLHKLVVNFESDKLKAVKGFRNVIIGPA
Experimental: as §1

B1: DC1 murine monoclonal antibody (antibody, V domains shown)
VH: EVQLVESGGGLVKPGGSLKLSCAASGFTLSTHAMSWVRQTPEKRLEWVATISSGGRSTYYPDSVKGRFTISRDNVKNTLYLQLSSLRSEDTAVYFCARLISTYWGQGTTLTVSS
VL: DITMTQSPSSIYASLGERVTITCKASQDINSYLTWFQQKPGKSPKILIYLVNRLVDGVPSRFSGSGSGQDYALTISSLEYEDMGIYYCLQYDDFPYTFGGGTKLEIK
notes: Mouse hybridoma IgG; heavy chain amplified with primer MHCG1, kappa light chain; also called mDC001
Does B1 bind (rat TG2)?
Result: binds

B2: cDH001 chimeric antibody (murine DH2 variable regions) (antibody, human IgG1, V domains shown)
VH: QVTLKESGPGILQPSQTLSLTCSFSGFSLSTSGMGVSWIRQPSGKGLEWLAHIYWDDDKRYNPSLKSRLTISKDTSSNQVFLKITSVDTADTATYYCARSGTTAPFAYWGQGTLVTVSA
VL: QIVLTQSPAIMSASPGEKVTMTCSASSSVSYMYWYQQKPGSSPRLLIYDTSNLASGVPVRFSGSGSGTSYSLTISRMEAEDAATFYCQQWSSSPLTFGAGTKLELK
Which EC50 [1] does the source give for B2 here?
The EC50 was 0.34 nM.

B3: cDD9001 chimeric antibody (murine DD9 variable regions) (antibody, human IgG1, V domains shown)
VH: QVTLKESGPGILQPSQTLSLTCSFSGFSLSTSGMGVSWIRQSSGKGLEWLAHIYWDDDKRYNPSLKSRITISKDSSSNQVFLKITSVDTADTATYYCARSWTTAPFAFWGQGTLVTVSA
VL: QIVLTQSPAIMSASPGEKVTMTCSASSSVDYMYWYQQKPGSSPRLLIYDTSNLASGVPVRFSGSGSGTSYSLTISRMGAEDAATYYCQQWNSSPLTFGAGTKLELK
How did the “IC50 of enzymatic inhibition, dansylated lysine incorporation into N,N-dimethylated casein [continued), panel D]” value [2] turn out when B3 was run?
Its value is 172 nM.

And the EC50 (cynomolgus monkey TG2)?
The EC50 was 0.328 nM.

B4: JE12 murine monoclonal antibody (antibody, V domains shown)
VH: EVQLQQSGPELVKPGASVKMSCKASGYRFTSYVMHWVKQKSGQGLEWIGYINPYNDGAKYNEKFKGKATLTSDKSSSTAYMELSSLTSEDSAVYYCARLSSDYWGQGTTLTVSS
VL: DVLMTQNPLSLPVSLGDQASISCRSSQSIEHINGNTYLEWYLQKPGQSPKFLIYKVSNRFSGVPDRFSGSGSGTDFTLRISRVEAEDLGIYYCFQGSHVPFTFGGGTKLEIK
notes: Mouse hybridoma IgG; heavy chain amplified with primer MHCG1, kappa light chain
Does B4 bind (rat TG2)?
Result: binds
